Reference: PMC12865133, “Macrocyclic Molecular Glues for the 14‐3‐3/ChREBP Interaction: Affinity and Cooperativity in an Inverse Relationship” (Angewandte Chemie (International Ed. in English), 2025)
“And” between values parts separate entries of the source, which are not always exact repeats. Identical values can stand only once. Bridges are numbered along the chain shown (N, C = ends). Where no end group is shown, it is not given here. [ ]: non-standard residue; d: D form. Phe(4-NO2) = N[C@@H](Cc1ccc([N+](=O)[O-])cc1)C(=O)O; pS = N[C@@H](COP(=O)(O)O)C(=O)O; azidoPhe = azido phenylalanine; β3hS = N[C@@H](CO)CC(=O)O; βAla = NCCC(=O)O

Legend:
Conditions in all cases: both partners purified
[1] = target: T1, 14-3-3β (UniProt P31946 1-246); experiment: fluorescence polarisation; two-dimensional fluorescence anisotropy; 14-3-3β titrated to FITC-labeled F1, F2, F3, F4 or pepD (10 nM) with varying concentrations of ChREBP peptide; fitted to a thermodynamic cooperativity model with KD II fixed at 1.5 µM; n = 2
T1 construct: 14-3-3 protein, beta isoform; also called 14-3-3 protein
T1 sequence (looked up): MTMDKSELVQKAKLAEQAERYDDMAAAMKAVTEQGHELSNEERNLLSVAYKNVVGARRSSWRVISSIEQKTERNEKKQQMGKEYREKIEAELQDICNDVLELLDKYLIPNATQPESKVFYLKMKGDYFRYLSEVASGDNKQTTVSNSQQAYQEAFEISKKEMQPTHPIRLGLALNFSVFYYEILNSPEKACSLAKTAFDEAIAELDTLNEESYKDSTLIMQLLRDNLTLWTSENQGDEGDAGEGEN

[2] = target: T2, 14-3-3γ (UniProt P61981 1-247); experiment: fluorescence polarisation; fluorescence anisotropy; 14-3-3γ titrated to FITC-labeled macrocycles F1-F4 and pepD (10 nM); mean ± SD, n = 3
T2 construct: 14-3-3 protein, gamma isoform; also called 14-3-3 protein
T2 sequence (looked up): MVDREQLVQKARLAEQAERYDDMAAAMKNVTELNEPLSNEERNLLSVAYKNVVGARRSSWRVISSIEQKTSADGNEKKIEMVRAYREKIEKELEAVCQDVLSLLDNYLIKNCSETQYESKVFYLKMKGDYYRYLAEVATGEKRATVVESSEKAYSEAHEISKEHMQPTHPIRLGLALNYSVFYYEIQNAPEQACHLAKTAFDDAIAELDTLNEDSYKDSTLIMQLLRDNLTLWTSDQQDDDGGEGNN

[3] = target: T3, full-length human 14-3-3β protein with a N-terminal His6 tag (human, UniProt P31946 1-246); experiment: fluorescence polarisation; selectivity assay by fluorescence anisotropy: acetylated 14-3-3 client peptides titrated (from 100 μM, 2-fold) to 10 nM FITC-labeled macrocycle F2 or F4 bound to 14-3-3β (7 μM for 2, 2 μM for 4); 10 mM HEPES pH 7.4, 150 mM NaCl, 0.1% Tween20, 0.1% BSA; room temperature
T3 construct: 14-3-3 protein beta/alpha, human, full length; Treated as a dimer in the thermodynamic model (Pp = 14-3-3 dimer); also called Pp (14-3-3 dimer); source: E. coli BL21(DE3), pPROEX HTb, purified (Ni-NTA, dialysis)
T3 sequence (looked up): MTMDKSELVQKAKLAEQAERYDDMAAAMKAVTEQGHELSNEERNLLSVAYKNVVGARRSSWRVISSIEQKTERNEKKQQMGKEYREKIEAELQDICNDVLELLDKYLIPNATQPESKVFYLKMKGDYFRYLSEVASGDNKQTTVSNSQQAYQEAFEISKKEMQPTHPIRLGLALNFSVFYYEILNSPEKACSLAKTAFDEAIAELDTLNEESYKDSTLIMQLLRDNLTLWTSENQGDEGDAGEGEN

[4] = target: T4, recombinant 14-3-3γ-Twinstrep protein (human, UniProt P61981 1-247); experiment: SPR; kinetic fit (1:1 model, global); Twinstrep-tagged 14-3-3γ captured on a Strep-Tactin XT chip (about 1000 RU), 2-fold dilutions of Ac-macrocycle or pepD injected; multi-cycle; 25 °C; 10 mM HEPES pH 7.4, 200 mM NaCl, 50 μM EDTA, 0.005% P20; two replicates and their average
T4 construct: 14-3-3 protein gamma; The expression of the Twinstrep construct is not described; also called Twinstrep-tagged 14-3-3γ; source: recombinant
T4 sequence (looked up): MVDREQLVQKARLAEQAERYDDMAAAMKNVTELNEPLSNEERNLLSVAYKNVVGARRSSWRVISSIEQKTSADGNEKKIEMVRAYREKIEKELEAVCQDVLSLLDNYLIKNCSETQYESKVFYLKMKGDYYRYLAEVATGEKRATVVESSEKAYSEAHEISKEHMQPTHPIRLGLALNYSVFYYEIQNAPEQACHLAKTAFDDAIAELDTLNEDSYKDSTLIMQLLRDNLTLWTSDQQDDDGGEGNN

[5] = target: T5, full-length human 14-3-3γ protein with a N-terminal His6 tag (human, UniProt P61981 1-247); experiment: ITC; 200 μM macrocycle or pepD titrated to 20 μM 14-3-3γ; 25 mM HEPES pH 8.0, 100 mM NaCl, 10 mM MgCl2, 500 µM TCEP; 25 °C; fitted with SEDPHAT; mean ± SD, n=3
T5 construct: 14-3-3 protein gamma, human, full length; TEV cleavage of the His6 tag is told only for the 14-3-3σ ΔC construct; source: E. coli BL21(DE3), pPROEX HTb, purified (Ni-NTA, dialysis)
T5 sequence (looked up): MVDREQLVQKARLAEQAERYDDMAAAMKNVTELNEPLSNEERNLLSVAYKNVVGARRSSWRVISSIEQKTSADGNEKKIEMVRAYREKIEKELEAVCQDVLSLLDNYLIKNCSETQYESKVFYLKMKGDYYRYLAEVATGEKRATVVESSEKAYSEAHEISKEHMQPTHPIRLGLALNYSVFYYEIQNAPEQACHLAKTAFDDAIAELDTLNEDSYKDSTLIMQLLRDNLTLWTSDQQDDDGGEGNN

[6] = target: T4, recombinant 14-3-3γ-Twinstrep protein; experiment: SPR; affinity fit (steady-state response against concentration, 1:1 model); Twinstrep-tagged 14-3-3γ captured on a Strep-Tactin XT chip, 2-fold dilutions of Ac-macrocycle or pepD injected; 25 °C; 10 mM HEPES pH 7.4, 200 mM NaCl, 50 μM EDTA, 0.005% P20; two replicates and their average
[7] = target: T3, full-length human 14-3-3β protein with …; experiment: fluorescence polarisation; 2D fluorescence anisotropy titration, replicate 2: 14-3-3β titrated (from 250 µM) to FITC-labeled macrocycle or pepD with varying ChREBP peptide starting at 10 μM; KD I (binary affinity of the macrocycle for a site of the 14-3-3 dimer) fitted by the thermodynamic cooperativity model with KD II fixed at 1.5 µM; 10 mM HEPES pH 7.4, 150 mM NaCl, 0.1% Tween20, 0.1% BSA; room temperature
[8] = target: T3, full-length human 14-3-3β protein with …; experiment: fluorescence polarisation; 2D fluorescence anisotropy titration, replicate 1: 14-3-3β titrated (from 250 µM) to FITC-labeled macrocycle or pepD with varying ChREBP peptide starting at 20 μM; KD I (binary affinity of the macrocycle for a site of the 14-3-3 dimer) fitted by the thermodynamic cooperativity model with KD II fixed at 1.5 µM; 10 mM HEPES pH 7.4, 150 mM NaCl, 0.1% Tween20, 0.1% BSA; room temperature

B1: macrocycle F1 (peptide)
chain: SFSXFKXK
modifications: not fully specified; fluorescein isothiocyanate (FITC) on the side chain of the first lysine; β-alanine after it; phosphoserine; triazole from azido phenylalanine (replacing Nph(+1)) cyclised to the backbone amide nitrogen between Lys(+5) and Nph(+4), linker x = 1; β-homoSer(+2); β-Ala(+3); 4-nitrophenylalanine Nph(+4)
- Kd [1]: 72 ± 1.4 µM
- Kd [2]: 57 µM

B2: TAZ client peptide (peptide)
peptide: Ac-HVRSH[pS]SPASLQLG
notes: TAZ, 14-3-3 client peptide; No C-terminal group is printed for this peptide; source: synthetic peptide, bought: GenScript Biotech Corp
- binding result [3]: binds

B3: macrocycle 3 (peptide)
chain: Ac-[pS][azidoPhe][β3hS][βAla][Phe(4-NO2)]K
modifications: bridge 2-6; not fully specified (bridges); also: triazole of Phe(+1) (from azido phenylalanine) cyclised to backbone amide nitrogen of Lys(+5)
- Kd [4]: 0.22 µM and 0.233 µM and 0.23 µM
- Kd [5]: 0.167 µM
- Kd [6]: 0.228 µM and 0.253 µM and 0.24 µM

B4: macrocycle 4 (peptide)
chain: SFSXFK
modifications: not fully specified; phosphoserine (position 0); phenylalanine(+1) with a triazole (from azido phenylalanine, replacing Nph(+1)) cyclised to the backbone amide nitrogen of Lys(+5) through an alkyl linker x = 4 (from 5-hexyn-1-ol); β-homoSer(+2); β-Ala(+3); 4-nitrophenylalanine Nph(+4); Ac- (Ac-macrocycles)
- Kd [4]: 1.14 µM and 1.03 µM and 1.1 µM
- Kd [5]: 1.05 µM
- Kd [6]: 1.18 µM and 1.13 µM and 1.2 µM

B5: USP8 client peptide (peptide)
peptide: Ac-KLKRSY[pS]SPDITQ-NH2
SMILES: CC[C@H](C)[C@H](NC(=O)[C@H](CC(=O)O)NC(=O)[C@@H]1CCCN1C(=O)[C@H](CO)NC(=O)[C@H](COP(=O)(O)O)NC(=O)[C@H](Cc1ccc(O)cc1)NC(=O)[C@H](CO)NC(=O)[C@H](CCCNC(=N)N)NC(=O)[C@H](CCCCN)NC(=O)[C@H](CC(C)C)NC(=O)[C@H](CCCCN)NC(C)=O)C(=O)N[C@H](C(=O)N[C@@H](CCC(N)=O)C(N)=O)[C@@H](C)O
notes: USP8, 14-3-3 client peptide; source: synthetic peptide, bought: GenScript Biotech Corp
- binding result [3]: binds

B6: acetylated ChREBP peptide (peptide)
peptide: Ac-RDKIRLNNAIWRAWYIQYVKRRKSPV-NH2
notes: also called S (in the model); source: synthetic peptide, bought: GenScript Biotech Corp
- binding result [3]: binds

B7: NOTCH4 client peptide (peptide)
peptide: Ac-RPRTQ[pS]APHRRRPP-NH2
SMILES: CC(=O)N[C@@H](CCCNC(=N)N)C(=O)N1CCC[C@H]1C(=O)N[C@@H](CCCNC(=N)N)C(=O)N[C@H](C(=O)N[C@@H](CCC(N)=O)C(=O)N[C@@H](COP(=O)(O)O)C(=O)N[C@@H](C)C(=O)N1CCC[C@H]1C(=O)N[C@@H](Cc1c[nH]cn1)C(=O)N[C@@H](CCCNC(=N)N)C(=O)N[C@@H](CCCNC(=N)N)C(=O)N[C@@H](CCCNC(=N)N)C(=O)N1CCC[C@H]1C(=O)N1CCC[C@H]1C(N)=O)[C@@H](C)O
notes: NOTCH4, 14-3-3 client peptide; source: synthetic peptide, bought: GenScript Biotech Corp
- binding result [3]: binds

B8: B-RAF client peptide (peptide)
peptide: Ac-RDRSS[pS]APNVH-NH2
SMILES: CC(=O)N[C@@H](CCCNC(=N)N)C(=O)N[C@@H](CC(=O)O)C(=O)N[C@@H](CCCNC(=N)N)C(=O)N[C@@H](CO)C(=O)N[C@@H](CO)C(=O)N[C@@H](COP(=O)(O)O)C(=O)N[C@@H](C)C(=O)N1CCC[C@H]1C(=O)N[C@@H](CC(N)=O)C(=O)N[C@H](C(=O)N[C@@H](Cc1c[nH]cn1)C(N)=O)C(C)C
notes: B-RAF, 14-3-3 client peptide; source: synthetic peptide, bought: GenScript Biotech Corp
- binding result [3]: binds

Binder: [pS][Phe(4-NO2)][β3hS][βAla][Phe(4-NO2)]K (also: FITC label, site not given here) [FITC-labeled pepD]
- Kd [7]: 7.5 µM
- Kd [8]: 8.9 µM
